Target: Invasion plasmid antigen B (IpaB) (S. flexneri)
Assay: native gel or EMSA

## Invasion plasmid antigen B (IpaB) (natural protein)
  stoichiometry N: > 10
